In patent US9012420B2, “Aptamer for chymase, and use thereof” (Ribomic Inc., priority 2009, dated 2015):
Oligonucleotides are written 5' to 3', each unit as a sugar letter and its base; * is a phosphorothioate linkage, no mark a phosphodiester; rarer units and linkages stand in square brackets, end groups in braces. Plain capitals give the bases only. r = 2'-OH (RNA); f = 2'-fluoro

T1: chymase (Homo sapiens, UniProt P23946 P23946:22-247)
T1 sequence: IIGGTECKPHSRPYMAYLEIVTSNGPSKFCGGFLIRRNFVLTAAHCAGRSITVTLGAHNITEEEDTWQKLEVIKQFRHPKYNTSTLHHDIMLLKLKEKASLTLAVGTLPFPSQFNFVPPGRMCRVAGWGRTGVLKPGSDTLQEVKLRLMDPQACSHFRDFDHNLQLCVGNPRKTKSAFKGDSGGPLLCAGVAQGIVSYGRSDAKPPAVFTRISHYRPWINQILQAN

T2: chymase (recombinant, manufactured by SIGMA) (Homo sapiens, UniProt P23946)
T2 construct: purchased SIGMA; host or cells: yeast
T2 sequence (P23946 22-247): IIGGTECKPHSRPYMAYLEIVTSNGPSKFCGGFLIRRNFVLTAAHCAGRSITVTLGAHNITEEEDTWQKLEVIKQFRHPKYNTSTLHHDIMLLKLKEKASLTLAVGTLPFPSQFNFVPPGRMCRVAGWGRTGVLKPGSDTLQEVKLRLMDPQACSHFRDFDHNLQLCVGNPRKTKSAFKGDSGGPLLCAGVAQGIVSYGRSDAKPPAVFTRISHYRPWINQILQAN

T3: chymase (Homo sapiens, UniProt P23946)
T3 sequence (P23946 22-247): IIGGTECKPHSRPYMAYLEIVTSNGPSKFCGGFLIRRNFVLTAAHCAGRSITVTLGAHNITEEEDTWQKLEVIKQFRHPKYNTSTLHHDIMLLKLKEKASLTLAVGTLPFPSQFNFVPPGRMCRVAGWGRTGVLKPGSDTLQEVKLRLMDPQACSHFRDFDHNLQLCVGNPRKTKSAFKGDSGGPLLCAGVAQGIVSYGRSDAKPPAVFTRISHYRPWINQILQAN


What was measured:
chymase [1] = target: T1, chymase; assay: inhibition; Suc-AAPF-MCA, 37 C, solution C; conditions: tags: recombinant, expressed in yeast, SIGMA
Procedure: Here, Suc is a protecting succinyl group, and MCA is a 4-methylcoumaryl-7-amide group; upon cleavage of the C-terminal side of phenylalanine, AMC (7-amino-4-methyl-coumarine) is released. By detecting the fluorescence of this AMC, the enzyme activity of chymase can be determined. The assay was performed using a 96-well plate (F16 Black Maxisorp Fluoronunc, manufactured by Nunc), with a reaction mixture volume of 100 μL, in solution C as a buffer solution. First, each nucleic acid was serially diluted to 0.0027-2 μM concentrations in solution C to obtain 50 μL solutions. After 10 μL of the 1 mM substrate prepared in solution C was added thereto, the plate was set to the microplate reader SpectraMax190 (manufactured by Molecular Devices Corporation), and incubated at 37° C. for 5 minutes. Separately, 0.05 μg (or 0.005 μg) of chymase (recombinant, manufactured by SIGMA) was diluted in solution C to obtain a 40 μL chymase solution, and incubated at 37° C. for 5 minutes. The chymase solution was added to the mixture of the nucleic acid and substrate to initiate an enzyme reaction. The final chymase concentration in the reaction mixture was 16.7 nM (or 1.67 nM), the final substrate concentration being 100 μM. The plate containing the reaction mixture was set to the microplate reader SpectraMax190 (manufactured by Molecular Devices Corporation), and examined for time-dependent changes in the fluorescence intensity at 37° C. for 5 minutes (or 30 minutes) (excitation wavelength 380 nm, detection wavelength 460 nm). A linear approximation of the increase in the fluorescence of the AMC released from the substrate by chymase activity was generated, and its slope was taken as the initial velocity […]. For control, samples were treated and analyzed in the same manner in two cases: use of a 30N or 40N (a nucleotide of 30 or 40 consecutive bases represented by N; N is A, G, C or T) nucleic acid pool (negative control), and use of chymostatin, a known chymotrypsin-like serine protease inhibitor (positive control). Taking the initial reaction velocity without the nucleic acid and inhibitor (V_0) as a 100% enzyme activity, the inhibitory rate of each test substance was calculated using the following equation: […]
The chymase inhibitory activity was measured in the same manner as in Example 3.

[2] = target: T2, chymase (recombinant, manufactured by SIGMA); assay: Chymase inhibitory activity using synthetic substrate Suc-Ala-Ala-Pro-Phe-MCA; assay type: biochemical; conditions: Table 3; substrate 100 μM, solution C, 37° C.; mean value for 2 to 3 measurements
Procedure: A first method employs a synthetic substrate. A useful chymase substrate is Suc-Ala-Ala-Pro-Phe-MCA (4-methylcoumaryl-7-amide group) (manufactured by Peptide Institute, Inc.), which contains the 4-amino acid peptide “Ala-Ala-Pro-Phe”, a standard substrate for chymotrypsin-like proteases.
The assay is performed using a 96-well plate (F16 Black Maxisorp Fluoronunc, manufactured by Nunc), with a reaction mixture volume of 100 μL, in a buffer solution (solution C; see Example 2 below). First, each nucleic acid is prepared in solution C to obtain 50 μL solutions. After 10 μL of the 1 mM substrate prepared in solution C is added, the plate is set to the microplate reader SpectraMax190 (manufactured by Molecular Devices Corporation), and incubated at 37° C. for 5 minutes. Separately, 0.05 μg of chymase (recombinant, manufactured by SIGMA) is diluted in solution C, and 40 μL of this dilution is incubated at 37° C. for 5 minutes. The chymase solution is added to the mixture of the nucleic acid and substrate to initiate an enzyme reaction. The plate containing the reaction mixture is set to the microplate reader SpectraMax190 (manufactured by Molecular Devices Corporation), and examined for time-dependent changes in the fluorescence intensity at 37° C. for 5 minutes (excitation wavelength 380 nm, detection wavelength 460 nm). A linear approximation of the increase in the fluorescence of the AMC (7-amino-4-methylcoumarine) released from the substrate by chymase activity is generated, and its slope is taken as the initial reaction velocity. For control, samples are treated and analyzed in the same manner in two cases: use of a nucleic acid pool containing a random sequence of 30 or 40 nucleotides (negative control), and use of chymostatin, a known chymotrypsin-like serine protease inhibitor (positive control). Taking the initial reaction velocity without the nucleic acid and inhibitor as a 100% enzyme activity, the inhibitory rate for each test substance is calculated, and the inhibitor concentration required to cause a 50% inhibition of the enzyme activity (IC50) is determined.
Whether the nucleic acids shown by SEQ ID NO: 4-20, 22-34, and 38-48 inhibit the enzyme activity of chymase was determined as described below. The chymase substrate used was Suc-Ala-Ala-Pro-Phe-MCA (manufactured by Peptide Institute, Inc.), which contains the 4-amino-acid peptide Ala-Ala-Pro-Phe, a standard substrate for chymotrypsin-like proteases. Here, Suc is a protecting succinyl group, and MCA is a 4-methylcoumaryl-7-amide group; upon cleavage of the C-terminal side of phenylalanine, AMC (7-amino-4-methylcoumarine) is released. By detecting the fluorescence of this AMC, the enzyme activity of chymase can be determined. The assay was performed using a 96-well plate (F16 Black Maxisorp Fluoronunc, manufactured by Nunc), with a reaction mixture volume of 100 μL, in solution C as a buffer solution. First, each nucleic acid was serially diluted to 0.0027-2 μM concentrations in solution C to obtain 50 μL solutions. After 10 μL of the 1 mM substrate prepared in solution C was added thereto, the plate was set to the microplate reader SpectraMax190 (manufactured by Molecular Devices Corporation), and incubated at 37° C. for 5 minutes. Separately, 0.05 μg (or 0.005 μg) of chymase (recombinant, manufactured by SIGMA) was diluted in solution C to obtain a 40 μL chymase solution, and incubated at 37° C. for 5 minutes. The chymase solution was added to the mixture of the nucleic acid and substrate to initiate an enzyme reaction. The final chymase concentration in the reaction mixture was 16.7 nM (or 1.67 nM), the final substrate concentration being 100 μM. The plate containing the reaction mixture was set to the microplate reader SpectraMax190 (manufactured by Molecular Devices Corporation), and examined for time-dependent changes in the fluorescence intensity at 37° C. for 5 minutes (or 30 minutes) (excitation wavelength 380 nm, detection wavelength 460 nm). […]

chymase [3] = target: T3, chymase; assay: Surface plasmon resonance (Biacore T100), aptamer immobilized on SA chip, chymase injected as analyte; assay type: binding; parameters: key: ++: a sequence that binds to chymase significantly more strongly than the negative control 40N; +: a sequence that binds to chymase equivalently compared with the negative control 40N; conditions: Table 1; about 1000 RU nucleic acid immobilized, chymase 0.2 μM analyte, running buffer solution A; compared with 40N
Procedure: Binding strength is measured using Biacore T100 (manufactured by GE Healthcare). In a method of measurement, the aptamer is first immobilized onto a sensor chip, the amount immobilized being about 1000 RU. 20 μL of a chymase solution for analyte, prepared at 0.2 μM, is injected, and the binding of chymase to the aptamer is detected. An RNA comprising a random nucleotide sequence of 30 or 40 nucleotides is used as a negative control.
The binding activities against chymase of the nucleic acids shown by SEQ ID NO: 4-20 and 22-34 were determined by the surface plasmon resonance method using Biacore T100 (manufactured by GE Healthcare). The sensor chip used was the SA chip, which had streptavidin immobilized thereon. Bound thereto was about 1500 RU of a 16-nucleotide Poly dT with biotin bound to the 5′ end thereof. […] 20 μL of chymase for analyte, prepared at 0.2 μM, was injected. Solution A was used as a running buffer.
The binding activities against chymase of the nucleic acids shown by SEQ ID NO: 38-48 were evaluated by the surface plasmon resonance method. In the evaluations for SEQ ID NO: 38-48, measurements were taken in the same manner as Example 1. Solution C was used as a running buffer.

Molecule | IC50 (chymase [1]) [nM] | IC50 [2] [nM] | Binding activity as determined using Biacore (chymase [3])
GGGUUAGAUAGAGUUAAAAACCC (ssRNA, 2'-F U and C; 2'-OMe 2,3,7,8,10,13,16-20; 5' and 3' idT) [56(40)] | 51 | – | –
15 (nucleic acid, aptamer) rGrGrGrAfCrGrGfUrArGrGrArAfUfUfCfCfCrArGrArArArAfUrArArAfUfUfCfCrGrArArGrArArArAfCrArAfCrArAfUfUfUfUfUrGfCrArArAfCrAfUrArGrArArGrArGfCrGrGfCfCrGfC | – | 285 ± 21 | ++
GGGUUAGAUAGAGUUAAAAACCC (mixed, 2'-F U and C; 2'-OMe 1-3,7,10,13,16-20; DNA A6; 5' and 3' idT) [56(49)] | 69 | – | –
8 (nucleic acid, aptamer) rGrGrGrAfCrGrGfUrArGrGrArAfUfUfCfUrAfCrGrGfUfCfUrGfUrGfUrGrArArAfUfUrGrArArAfCrAfCrAfCrArArArGrArAfCrArAfUrArArAfCrAfUrArGrArArGrArGfCrGrGfCfCrGfC | – | 453 ± 463 | ++
11 (nucleic acid, aptamer) rGrGrGrAfCrGrGfUrArGrGrArAfUfUfCfCfCrGrAfCrAfCrGrArArAfUrGfUrGfUrGrAfUfUrArAfUfUfCfCrGrArAfCrArAfCrArArArGfUrArAfCrAfUrArGrArArGrArGfCrGrGfCfCrGfC | – | 145 ± 36 | ++
9 (nucleic acid) rGrGrGrAfCrGrGfUrArGrGrArAfUfUfCfCfCrGrArArArArGfCrArAfCrArArGfCfUfUrGfCfUrArArArAfUrGrAfUfUfCfCrGrArArArArArAfCrAfCrAfUrArGrArArGrArGfCrGrGfCfCrGfC | – | 273 ± 69 | ++
GGGUUAGAUAGAGUUAAAAACCC (ssRNA, 2'-F U and C; 2'-OMe 1-3,10,13,16-20; PS 7-8; 5' and 3' idT) [56(36)] | 97 | – | –
GGGUUAGAUAGAGUUAAAAACCC (ssRNA, 2'-F U and C; 2'-OMe 1-3,19,20; 5' and 3' idT) [56(24)] | 38 | – | –
GGGUUAGAUAGAGUUAAAAACCC (mixed, 2'-F U and C; 2'-OMe 1-3,10,13,16-20; DNA G7,A8; 5' and 3' idT) [56(52)] | 52 | – | –
GGGTTAGAUAGAGTUAAAAACCC (mixed, 2'-F U; 2'-OMe 1-3,7,8,10,16-20; DNA T4,T5,G13,T14,C21-C23; 5' and 3' idT) [72(3)] | 50 | – | –
10 (nucleic acid, aptamer) rGrGrGrAfCrGrGfUrArGrGrArAfUfUfCfCrGfCfCrGfCfCfUrArArArArArAfCrGrAfCrGrAfUrAfUfUrAfCrArGrArArAfCrGfUfCrArArAfUrAfCrAfUrArGrArArGrArGfCrGrGfCfCrGfC | – | > 500 | ++
GGGUUAGAUAGAGUUAAAAACCC (ssRNA, 2'-F U and C; 2'-OMe 2,3,7,8,10,13,16-20; PS 6-7; 5' and 3' idT) [56(41)] | 53 | – | –
GGGTTAGAUAGAGTUAAAAACCC (mixed, 2'-F U; 2'-OMe 1-3,7,8,10,13,17-20; DNA T4,T5,T14,A16,C21-C23; 5' and 3' idT) [72(4)] | 65 | – | –
12 (nucleic acid, aptamer) rGrGrGrAfCrGrGfUrArGrGrArAfUfUfCrGfCfCrGfUfCrArAfCrGfUfUrAfCrAfUrArAfUrGfUrAfUrAfUrAfCfCrArGrGrGfUrArAfCfUrArArAfCrAfUrArGrArArGrArGfCrGrGfCfCrGfC | – | 128 ± 23 | ++
GGGUUAGAUAGAGUUAAAAACCC (ssRNA, 2'-F U and C; 2'-OMe 2,3,7,8,10,13,16-20; 5' PEG 40 kDa; 3' idT) [56(39)] | 86 | – | –
GGGUUAGAUAGAGUUAAAAACCC (ssRNA, 2'-F U and C; 2'-OMe 1-3,10,13,16-20; PS 6-7,7-8; 5' and 3' idT) [56(37)] | 46 | – | –
GGGUUAGAUAGAGUUAAAAACCC (ssRNA, 2'-F U and C; 2'-OMe 1-3,7,8,10,16,17,19,20) [56(20)] | 102 | – | –
GGGUUAGAUAGAGUUAAAAACCC (ssRNA, 2'-F U and C; 2'-OMe 7,8,10; 5' and 3' idT) [56(25)] | 70 | – | –
